Assay results as given in patent publication US20230002480A1.

Legend:
Assay in all cases: cell-based or functional assay
[1] = target: HIV-1 Env of pseudovirus TRJO4551.58 (HIV-1)
[2] = target: HIV-1 Env of pseudovirus C3347.c11 (HIV-1)
[3] = target: HIV-1 Env of pseudovirus BJOX015000.11.5 (HIV-1)
[4] = target: HIV-1 Env of pseudovirus Q769.d22 (HIV-1)
[5] = target: HIV-1 Env of pseudovirus Ce2010_F5 (HIV-1)
[6] = target: HIV-1 Env of pseudovirus 6952.v1.c20 (HIV-1)
[7] = target: HIV-1 Env of pseudovirus C1080.c03 (HIV-1)
[8] = target: HIV-1 Env of pseudovirus X2131_C1_B5 (HIV-1)
[9] = target: HIV-1 Env of pseudovirus 3365.v2.c2 (HIV-1)
[10] = target: HIV-1 Env of pseudovirus ZM249M.PL1 (HIV-1)
[11] = target: HIV-1 Env of pseudovirus P1981_C5_3 (HIV-1)
[12] = target: HIV-1 Env of pseudovirus 62357_14_D3_4589 (HIV-1)
[13] = target: HIV-1 Env of pseudovirus Ce1086_B2 (HIV-1)
[14] = target: HIV-1 Env of pseudovirus C2101.c01 (HIV-1)
[15] = target: HIV-1 Env of pseudovirus SC422661.8 (HIV-1)
[16] = target: HIV-1 Env of pseudovirus 3301.v1.c24 (HIV-1)
[17] = target: HIV-1 Env of pseudovirus WITO4160.33 (HIV-1)
[18] = target: HIV-1 Env of pseudovirus BJOX025000.01.1 (HIV-1)
[19] = target: HIV-1 Env of pseudovirus 6811.v7.c18 (HIV-1)
[20] = target: HIV-1 Env of pseudovirus ZM109F.PB4 (HIV-1)
[21] = target: HIV-1 Env of pseudovirus Ce0393_C3 (HIV-1)
[22] = target: HIV-1 Env of pseudovirus T251-18 (HIV-1)
[23] = target: HIV-1 Env of pseudovirus CNE19 (HIV-1)
[24] = target: HIV-1 Env of pseudovirus CAP210.2.00.E8 (HIV-1)
[25] = target: HIV-1 Env of pseudovirus BF1266.431a (HIV-1)
[26] = target: HIV-1 Env of pseudovirus 6545.v4.c1 (HIV-1)
[27] = target: HIV-1 Env of pseudovirus ZM197M.PB7 (HIV-1)
[28] = target: HIV-1 Env of pseudovirus 1056_10_TA11_1826 (HIV-1)
[29] = target: HIV-1 Env of pseudovirus ZM53M.PB12 (HIV-1)
[30] = target: HIV-1 Env of pseudovirus Ce0682_E4 (HIV-1)
[31] = target: HIV-1 Env of pseudovirus 231965.c01 (HIV-1)
[32] = target: HIV-1 Env of pseudovirus HIV-16055-2.3 (HIV-1)
[33] = target: HIV-1 Env of pseudovirus CNE58 (HIV-1)
[34] = target: HIV-1 Env of pseudovirus 6480.v4.c25 (HIV-1)
[35] = target: HIV-1 Env of pseudovirus 9004SS_A3_4 (HIV-1)
[36] = target: HIV-1 Env of pseudovirus R2184.c04 (HIV-1)
[37] = target: HIV-1 Env of pseudovirus 249M B10 (HIV-1)

3BNC117 (antibody)
neutralization IC50 [1]: 0.05 µg/mL | neutralization IC80 [1]: 0.19 µg/mL | IC50, titer in TZM.bl cells [2]: 0.03 µg/mL | IC80, titer in TZM.bl cells [2]: 0.13 µg/mL | IC50, titer in TZM.bl cells [3]: 0.05 µg/mL | IC80, titer in TZM.bl cells [3]: 0.32 µg/mL | neutralization IC50 [4]: 0.01 µg/mL | neutralization IC80 [4]: 0.04 µg/mL | neutralization IC50 [5]: 0.05 µg/mL | neutralization IC80 [5]: 0.21 µg/mL | IC50, titer in TZM.bl cells [6]: 0.15 µg/mL | IC80, titer in TZM.bl cells [6]: 0.75 µg/mL | IC50, titer in TZM.bl cells [7]: 0.25 µg/mL | IC80, titer in TZM.bl cells [7]: 1.73 µg/mL | IC50, titer in TZM.bl cells [8]: 0.43 µg/mL | IC80, titer in TZM.bl cells [8]: 1.96 µg/mL | neutralization IC50 [9]: 0.03 µg/mL | neutralization IC80 [9]: 0.1 µg/mL | neutralization IC50 [10]: 0.03 µg/mL | neutralization IC80 [10]: 0.11 µg/mL | IC50, titer in TZM.bl cells [11]: 0.74 µg/mL | IC80, titer in TZM.bl cells [11]: 3.62 µg/mL | neutralization IC50 [12]: 0.06 µg/mL | neutralization IC80 [12]: 0.26 µg/mL | neutralization IC50 [13]: 0.09 µg/mL | neutralization IC80 [13]: 0.31 µg/mL | IC50, titer in TZM.bl cells [14]: 0.05 µg/mL | IC80, titer in TZM.bl cells [14]: 0.31 µg/mL | neutralization IC50 [15]: 0.02 µg/mL | neutralization IC80 [15]: 0.08 µg/mL | IC50, titer in TZM.bl cells [16]: 0.01 µg/mL | IC80, titer in TZM.bl cells [16]: 0.05 µg/mL | neutralization IC50 [17]: 0.01 µg/mL | neutralization IC80 [17]: 0.04 µg/mL | IC50, titer in TZM.bl cells [18]: 0.05 µg/mL | IC80, titer in TZM.bl cells [18]: 0.2 µg/mL | IC50, titer in TZM.bl cells [19]: 0.03 µg/mL | IC80, titer in TZM.bl cells [19]: 0.17 µg/mL | neutralization IC50 [20]: 0.14 µg/mL | neutralization IC80 [20]: 0.88 µg/mL | neutralization IC50 [21]: 0.2 µg/mL | neutralization IC80 [21]: 0.67 µg/mL | IC50, titer in TZM.bl cells [22]: 0.26 µg/mL | IC80, titer in TZM.bl cells [22]: 0.82 µg/mL | neutralization IC50 [23]: 0.02 µg/mL | neutralization IC80 [23]: 0.08 µg/mL | neutralization IC50 [24]: 17.2 µg/mL | neutralization IC80 [24]: > 50 µg/mL | neutralization IC50 [25]: 0.03 µg/mL | neutralization IC80 [25]: 0.09 µg/mL | IC50, titer in TZM.bl cells [26]: > 50 µg/mL | IC80, titer in TZM.bl cells [26]: > 50 µg/mL | neutralization IC50 [27]: 0.22 µg/mL | neutralization IC80 [27]: 1.03 µg/mL | neutralization IC50 [28]: 0.3 µg/mL | neutralization IC80 [28]: 1.82 µg/mL | neutralization IC50 [29]: 0.21 µg/mL | neutralization IC80 [29]: 0.85 µg/mL | neutralization IC50 [30]: 0.03 µg/mL | neutralization IC80 [30]: 0.15 µg/mL | IC50, titer in TZM.bl cells [31]: 0.05 µg/mL | IC80, titer in TZM.bl cells [31]: 0.22 µg/mL | neutralization IC50 [32]: 5.6 µg/mL | neutralization IC80 [32]: > 50 µg/mL | neutralization IC50 [33]: 0.25 µg/mL | neutralization IC80 [33]: 2.03 µg/mL | IC50, titer in TZM.bl cells [34]: 0.01 µg/mL | IC80, titer in TZM.bl cells [34]: 0.04 µg/mL | neutralization IC50 [35]: 0.07 µg/mL | neutralization IC80 [35]: 0.18 µg/mL | IC50, titer in TZM.bl cells [36]: 0.03 µg/mL | IC80, titer in TZM.bl cells [36]: 0.1 µg/mL | neutralization IC50 [37]: 0.1 µg/mL | neutralization IC80 [37]: 0.4 µg/mL
